Data: patent publication US20040071694A1

Biological target: biotinylated EpoR (Abbott CHO cell derived ref.# RB69084:4) (UniProt P19235)
Experiment: immunofluorescence microscopy on EpoR-coated sheep red blood cells

biotinylated EpoR (Abbott CHO cell derived ref.# RB69084:4), sequence (P19235 25-250 limits assumed): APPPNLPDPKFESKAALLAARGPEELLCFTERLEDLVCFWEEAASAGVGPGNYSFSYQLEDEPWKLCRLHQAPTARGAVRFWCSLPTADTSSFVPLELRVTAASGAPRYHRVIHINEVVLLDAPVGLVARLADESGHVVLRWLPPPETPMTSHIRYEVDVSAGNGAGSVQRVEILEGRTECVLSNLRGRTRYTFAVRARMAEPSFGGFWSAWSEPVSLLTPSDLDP

Substance “murine antiEpoR antibody (R&D Systems Cat.# MAB307)” has an immunofluorescence score (arbitrary scale of 0-4) (score out of 4) of 4.
